Results published in PMC3092982.

How the values were obtained:
[1] = molecular target: FH fragment SCR-16/20 (human); assay: AUC; sedimentation velocity, SCR-16/20 at 0.1 mg/ml, Hepes buffer, 20 °C, c(s) analysis; monomer and dimer peaks across the ZnSO4 titration 0-600 μM
C3d C3d (Homo sapiens) = C3d C3d (Homo sapiens) (UniProt P01024); settings: cited from earlier work
[2] = molecular target: Complement factor H (Homo sapiens) (UniProt P08603); settings: cited from earlier work

Sequence of Complement factor H (P08603 19-1231): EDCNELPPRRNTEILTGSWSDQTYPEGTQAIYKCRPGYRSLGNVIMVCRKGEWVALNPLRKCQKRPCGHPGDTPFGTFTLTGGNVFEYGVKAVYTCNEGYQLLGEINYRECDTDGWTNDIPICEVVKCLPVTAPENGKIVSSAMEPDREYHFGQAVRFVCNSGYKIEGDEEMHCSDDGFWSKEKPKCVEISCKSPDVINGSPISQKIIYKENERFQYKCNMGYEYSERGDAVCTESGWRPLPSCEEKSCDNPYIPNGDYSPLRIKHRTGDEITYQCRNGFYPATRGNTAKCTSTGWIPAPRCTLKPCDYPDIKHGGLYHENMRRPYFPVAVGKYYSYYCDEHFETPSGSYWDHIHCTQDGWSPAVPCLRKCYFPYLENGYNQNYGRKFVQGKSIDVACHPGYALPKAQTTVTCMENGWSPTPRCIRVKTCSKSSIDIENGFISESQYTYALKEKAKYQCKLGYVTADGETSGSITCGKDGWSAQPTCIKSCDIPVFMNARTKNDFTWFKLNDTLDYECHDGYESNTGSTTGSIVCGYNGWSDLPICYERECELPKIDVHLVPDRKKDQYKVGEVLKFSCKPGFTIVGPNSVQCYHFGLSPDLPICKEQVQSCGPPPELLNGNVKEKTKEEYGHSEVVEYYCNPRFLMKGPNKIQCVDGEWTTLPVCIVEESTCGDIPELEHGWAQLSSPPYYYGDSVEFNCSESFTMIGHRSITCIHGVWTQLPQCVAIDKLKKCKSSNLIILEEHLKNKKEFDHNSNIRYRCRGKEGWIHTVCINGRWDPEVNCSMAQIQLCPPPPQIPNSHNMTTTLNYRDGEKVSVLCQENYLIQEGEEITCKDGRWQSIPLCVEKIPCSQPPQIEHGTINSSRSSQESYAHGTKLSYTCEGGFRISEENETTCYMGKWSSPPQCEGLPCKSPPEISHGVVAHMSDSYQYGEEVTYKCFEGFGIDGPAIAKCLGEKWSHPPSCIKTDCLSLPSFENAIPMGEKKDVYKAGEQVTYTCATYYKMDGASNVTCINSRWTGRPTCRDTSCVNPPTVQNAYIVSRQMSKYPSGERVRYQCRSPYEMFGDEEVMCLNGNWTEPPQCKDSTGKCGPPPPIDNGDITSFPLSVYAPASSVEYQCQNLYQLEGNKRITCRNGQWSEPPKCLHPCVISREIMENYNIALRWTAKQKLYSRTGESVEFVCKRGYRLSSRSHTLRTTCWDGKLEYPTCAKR
Sequence of C3d C3d (Homo sapiens) (P01024 1002-1303): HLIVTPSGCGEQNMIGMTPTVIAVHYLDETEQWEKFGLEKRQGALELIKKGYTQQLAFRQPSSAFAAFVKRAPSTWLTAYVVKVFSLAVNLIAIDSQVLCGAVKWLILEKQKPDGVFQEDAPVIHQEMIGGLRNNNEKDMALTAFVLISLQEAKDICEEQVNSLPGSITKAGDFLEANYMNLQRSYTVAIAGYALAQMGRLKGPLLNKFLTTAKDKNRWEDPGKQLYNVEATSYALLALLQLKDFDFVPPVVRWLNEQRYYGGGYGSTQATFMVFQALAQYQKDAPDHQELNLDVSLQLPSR
Sequence of FH fragment SCR-16/20 (domain or fragment) (P08603 19-1231): as the sequence (P08603 19-1231) above

Row | stoichiometry N [1] | Substance | Kd (C3d C3d (Homo sapiens)) | Kd [2]
1 | 2 | FH fragment SCR-16/20 (domain or fragment) |  | 
2 |  | Complement factor H (from UniProt P08603) | 2600 nM | 28 µM
